Data taken from US7604970B2, “Variants of the PapM polypeptide of bacteria of the Streptomyces genus” (Aventis Pharma S.A., priority 2002, dated 2009).
Changes are numbered by the printed parent chain. Like-named read-outs stand apart in the source and are kept apart here.

Assays:
[1] = Blanc et al., 1997, cited from earlier work
[2] = Enzymatic screening: simultaneous assay of the two methylation activities of PapM (ratio r); assay type: biochemical, S. pristinaespiralis; conditions: for Ratio (r redetermined): 7 sequenced clones, experiment in which wild-type ratio was 0.40
Excerpt: The ratio of the respective rates V1 and V2 of methylation of L-PAPA and of L-MMPAPA is dependent on the kinetic parameters of PapM (Km1 and Vmax1 for L-PAPA, Km2 and Vmax2 for L-MMPAPA), and is also dependent on the respective concentrations S1 and S2 of L-PAPA and of L-MMPAPA, according to the formula: V1/V2=(Vmax1//Km1)[S1]/(Vmax2/Km2)[S2]
Simultaneous measurement of the two rates of methylation V1 and V2 at fixed concentrations of S1 and S2 makes it possible to determine the ratio of the kinetic constants of PapM for L-PAPA and L-MMPAPA. This ratio is independent of the amount of PapM used in the assay. When the selectivity of the mutated PapM enzyme increases for L-PAPA, the ratio V1/V2 should increase and, conversely, this ratio should decrease when the mutated PapM enzyme preferentially methylates L-MMPAPA.
Finally, in order to avoid small variations in Km and to, on the contrary, promote either large variations in Km or modifications in the Vmax values, the concentrations of L-PAPA and L-MMPAPA are fixed at approximately 6 times the Km in order to be under conditions of saturation. Under such conditions, with the wild-type PapM enzyme, the rate of methylation 1 and the rate of methylation 2 are virtually equal.
The simultaneous assaying of the two methylation activities of PapM is described in example 7.1. This assaying of the methylase activities of PapM is carried out in the presence of 1.5 mM L-PAPA, 3 mM L-MMPAPA and […].
The 96-well plates of the library of E. coli clones producing the mutated PapM enzymes, prepared as described in example 3, are thawed at 23° C. Next, 25 μl of mixture A are added to the 200 μl of the culture on LB medium contained in each well. Mixture A is obtained by adding successively (1) 3 ml of 50 mM Bis-Tris-Propane buffer, pH 10, in which have been dissolved 12 mg of L-PAPA, and 71 mg of (DL)-MMPAPA in dihydrochloride form and prepared as described in WO 96/01901-A1, (2) 0.7 ml of 4 mM SAM in water, (3) 0.7 ml of [^14C-Me]-SAM at 25 μCi/ml and 60 mCi/mmol (AMERSHAM), (4) 0.6 ml of 100 mM Bis-Tris-Propane buffer, pH 6.8, and (5) 56 mg of the disodium salt of EDTA. The amounts are given for the preparation of a 5 ml volume of mixture A. The plate is then sealed with an adhesive film, and then incubated at 27° C. for 2 hours. The reaction is stopped with 40 μl of a stop solution. The stop solution (for a volume of 4 ml) is obtained by mixing 2.2 ml of a 24 mg/ml sodium heptanesulfonate solution in water with 1.8 ml of concentrated hydrochloric acid. After centrifugation of the plates at 3 000 g for 5 min, approximately 100 μl of the supernatant of each well are analyzed by HPLC in the system described in example 7.1.
For each well, the respective areas A1 and A2 of the MMPAPA and DMPAPA peaks derived from recording the radiochemical detection are integrated. A ratio r is then calculated in the following way: r=A1/(A1+A2) In the case of the wild-type PapM methylase, r=0.50±0.05.

[3] = Blanc et al., 1997, cited from earlier work; remark: listed apart in the source
[4] = Km and Vmax of purified PapM methylases, methylation 2; assay type: biochemical, S. pristinaespiralis; conditions: for Km2 / Vm2 / Vm2/Km2 (enzyme efficiency, methylation 2): Table 7; for Vm2 (MMPAPA) / Km2 (MMPAPA): purified enzyme, 2 mM SAM; for Km2 (MMPAPA): substrate 0.1 to 60 mM
Protocol: (§1) The enzyme fractions to be assayed (1 to 20 units) are incubated for 30 min at 27° C. in a total volume of 200 μl of 50 mM bis-tris-propane buffer, pH 6.8, containing SAM (200 μM) the methyl group of which is radioactively labeled with the carbon 14 isotope (2 Ci/mol), in the presence of 4-amino-L-phenylalanine (1 mM) for assaying methylation 1, or of 4-methylamino-L-alanine (2.5 mM) for assaying methylation 2.
(§2) The reaction is stopped by adding 16 μl of 37% hydrochloric acid and then 20 μl of sodium heptanesulfonate at 240 g/l. After centrifugation, 150 μl of supernatant are injected into the HPLC system in the following gradient mode: • Mobile phase: Eluent A=1.2 g of heptanesulfonate+2.5 ml of glacial acetic acid+water (qs 1 000 ml). Eluent B=1.2 g of sodium heptanesulfonate+2.5 ml of glacial acetic acid+300 ml of acetonitrile+water (qs 1 000 ml). The gradient is produced in the following way: at t=0, 30% of eluent B; t=16 (min), 30% of eluent B; t=17 (min), 100% of eluent B; t=20 min, 100% of eluent B; t=21 min, 30% of eluent B; t=25 (min), 30% of eluent B. • Stationary phase: Nucleosil® C 18 5 μm×4.6 mm column (Macherey-Nagel)
(§3) On leaving the column, the substrates and products of the enzyme reaction are quantified by absorption at 254 nm. This detection is coupled to an on-line radiochemical detection using a Berthold LB506 detector equipped with a solid scintillation cell of the GT400-U4 type. This makes it possible to specifically follow the incorporation of radioactive methyl groups into the reaction products.
(§4) The unit of enzyme activity for methylation 1 (and also for methylation 2) is defined as the amount of enzyme required to incorporate 1 nmol of methyl group into 4-amino-L-phenylalanine (or into 4-methylamino-L-phenylalanine).
(§5) The conditions for assaying the methylation activity are identical to those described in example 7-1, with the exception of the 2 mM concentration of SAM, the methyl group of which is radioactively labeled with the carbon 14 isotope (2 Ci/mol). Concentration ranges varying from 0.1 to 60 mM for each of the substrates 4-amino-L-phenylalanine for methylation 1 and 4-methylamino-L-phenylalanine for methylation 2 are prepared. For each concentration of each substrate, the reaction rate is measured and expressed in nmol converted per hour and per mg of proteins.
(§6) The values of the kinetics constants are deduced from the Michaelis-Menten curves plotted using the Enzfiter software.

[5] = Competition assay between the two substrates; assay type: biochemical, S. pristinaespiralis; conditions: both substrates present: 1 mM 4-amino-L-phenylalanine, 2 mM 4-methylamino-L-phenylalanine, 2 mM SAM
Protocol: The ratio of the rates of conversion of the two competitive substrates is given by the formula: V1/V2=(Kcat1/Km1)[S1]/(Kcat2/Km2)[S2]
The amount of substrate and of enzyme brought into play is thus avoided by taking care not to convert not more than 2% of each of the substrates.
Using the same conditions for assaying the methylation activity as those described in example 7-1, with the exception of the concentration of SAM, which is 2 mM, and the methyl group of which is radioactively labeled with the carbon 14 isotope (2.5 Ci/mol), and with the simultaneous presence of the two substrates at the concentrations, for 4-amino-L-phenylalanine, of 1 mM and, for 4-methylamino-L-phenylalanine, of 2 mM, the rate of each of the reactions could thus be determined.
The assays were carried out simultaneously on the mutants described in examples 4 to 6, using the same substrate solutions.

[6] = Ratios of kinetic constants and enzyme efficiencies, methylation 1 / methylation 2; assay type: biochemical, S. pristinaespiralis; conditions: for Ratio Km2/Km1 / Ratio Vm1/Vm2: Table 5; for Vm1 · Km2 / Vm2 · Km1 (ratio of enzyme efficiencies): Table 7
Protocol: as §5, §6
For each mutant form of the enzyme, the enzyme efficiency of each methylation reaction (methylation 1 and methylation 2) was determined. This efficiency is defined by the ratio Vm1/Km1 (methylation 1) or Vm2/Km2 (methylation 2).
Then, for each form, the ratio of the enzyme efficiencies (methylation reaction 1/methylation reaction 2) was determined. This ratio is equal to Vm1.Km2/Vm2.Km1.

[7] = Km and Vmax of purified PapM methylases, methylation 1; assay type: biochemical, S. pristinaespiralis; conditions: for Km1 / Vm1 / Vm1/Km1 (enzyme efficiency, methylation 1): Table 7; for Vm1 (PAPA) / Km1 (PAPA): purified enzyme, 2 mM SAM; for Km1 (PAPA): substrate 0.1 to 60 mM
Protocol: as §1, §2, §3, §4, §5, §6

B1: 4-amino-L-phenylalanine (phenyl N)-methyltransferase (protein, UniProt P72542 1-292, looked up)
4-amino-L-phenylalanine/4-meth …: MTAAAPTLAQALDEATGQLTGAGITADAARADTRLLAAHACQVAPGDLDTCLAGPVPPRFWHYVRRRLTREPAERIVGHAYFMGHRFDLAPGVFVPKPETEEITRDAIARLEALVRRGTTAPLVVDLCAGPGTMAVTLARHVPAARVLGIELSQAAARAARRNARGTGARIVQGDARDAFPELSGTVDLVVTNPPYIPIGLRTSAPEVLEHDPPLALWAGEEGLGMIRAMERTAARLLAPGGVLLLEHGSYQLASVPALFRATGRWSHASSRPTCNDGCLTAVRNHTCAPPA
maximum velocity (Vmax) for L-PAPA [1]: 55 μmol per hour and per mg of PapM | Km ([1]; read-out: Michaelis constant (Km) for L-PAPA): 240 µM | Ratio (r redetermined) [2]: 0.40 | ratio of the two methylation activities (r) ([2]; after recloning of papM genes into pMTL23, E. coli DH5α, same experiment as wild-type): 0.40 | ratio r=A1/(A1+A2) of MMPAPA and DMPAPA peak areas ([2]; screening of E. coli cultures, 1.5 mM L-PAPA, 3 mM L-MMPAPA): 0.50±0.05 | maximum velocity (Vmax) for L-MMPAPA [3]: 71 μmol per hour and per mg of PapM | Km ([3]; read-out: Michaelis constant (Km) for L-MMPAPA): 530 µM | Km2 [4]: 0.55 | Vm2 [4]: 114 000 | Vm2/Km2 (enzyme efficiency, methylation 2) [4]: 207 270 | Vm2 (MMPAPA) [4]: 114 000 nmol/h/mg | Km2 (MMPAPA) [4]: 0.55 mM | first methylation reaction relative to the second (selectivity) [5]: catalyzes the two reactions in a similar manner | ratio of the enzyme efficiencies (methylation reaction 1/methylation reaction 2), Vm1.Km2/Vm2.Km1 [6]: 1.1 | Ratio Km2/Km1 [6]: 1.1 | Ratio Vm1/Vm2 [6]: 0.99 | Vm1 · Km2 / Vm2 · Km1 (ratio of enzyme efficiencies) [6]: 1.08 | Km1 [7]: 0.5 | Vm1 [7]: 112 600 | Vm1/Km1 (enzyme efficiency, methylation 1) [7]: 225 200 | Vm1 (PAPA) [7]: 112 600 nmol/h/mg | Km1 (PAPA) [7]: 0.5 mM

B2: Mutant 74D4: PapM variant clone, Gly249 > Ser (same substitution as mutant 49) (protein, UniProt P72542 1-292, looked up, variant G249S)
4-amino-L-phenylalanine/4-meth …: B1 4-amino-L-phenylalanine/4-meth … with G249S
Ratio (r redetermined) [2]: 0.63

B3: Mutant 74D5: PapM variant clone, Met226 > Ile (same substitution as mutant 69) (protein, UniProt P72542 1-292, looked up, variant M226I)
4-amino-L-phenylalanine/4-meth …: B1 4-amino-L-phenylalanine/4-meth … with M226I
Ratio (r redetermined) [2]: 0.52

B4: Mutant 52: PapM variant Gly249 > Asp (protein, UniProt P72542 1-292, looked up, variant G249D)
4-amino-L-phenylalanine/4-meth …: B1 4-amino-L-phenylalanine/4-meth … with G249D
Ratio (r redetermined) [2]: 0.66

B5: Mutant 49/66: doubly mutated PapM, Thr192 > Ile and Gly249 > Ser, plasmids pVRC718 / pVRC721 (protein, UniProt P72542 1-292, looked up, variant T192I G249S)
4-amino-L-phenylalanine/4-meth …: B1 4-amino-L-phenylalanine/4-meth … with T192I, G249S
Km2 [4]: 22 | Vm2 [4]: 9 100 | Vm2/Km2 (enzyme efficiency, methylation 2) [4]: 410 | Vm2 (MMPAPA) [4]: 9 100 nmol/h/mg | Km2 (MMPAPA) [4]: 22 mM | first methylation reaction relative to the second (selectivity) [5]: 7 times | Ratio Km2/Km1 [6]: 2.5 | Ratio Vm1/Vm2 [6]: 3.1 | Vm1 · Km2 / Vm2 · Km1 (ratio of enzyme efficiencies) [6]: 7.58 | Km1 [7]: 9 | Vm1 [7]: 28 000 | Vm1/Km1 (enzyme efficiency, methylation 1) [7]: 3 110 | Vm1 (PAPA) [7]: 28 000 nmol/h/mg | Km1 (PAPA) [7]: 9 mM

B6: Mutant 45: PapM variant Thr274 > Ile (protein, UniProt P72542 1-292, looked up, variant T274I)
4-amino-L-phenylalanine/4-meth …: B1 4-amino-L-phenylalanine/4-meth … with T274I
Ratio (r redetermined) [2]: 0.52

B7: Mutant 69: PapM variant Met226 > Ile (protein, UniProt P72542 1-292, looked up, variant M226I)
4-amino-L-phenylalanine/4-meth …: B1 4-amino-L-phenylalanine/4-meth … with M226I
Ratio (r redetermined) [2]: 0.51
